Target: Human MMP-12(ΔC) (human, UniProt P39900 106-263)
Test: enzyme inhibition kinetics

Sequence of Human MMP-12(ΔC) (P39900 106-263, stated change not applied): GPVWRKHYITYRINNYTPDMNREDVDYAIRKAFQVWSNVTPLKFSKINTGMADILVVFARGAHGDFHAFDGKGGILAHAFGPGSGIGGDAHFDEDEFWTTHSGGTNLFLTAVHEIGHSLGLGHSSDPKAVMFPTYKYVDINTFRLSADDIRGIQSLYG

- Ki: ~1.5 nM
- stoichiometry N: 1.05 molar equivalents
B1: N-TIMP-1, N-terminal inhibitory domain of tissue inhibitor of metalloproteinases 1 (active form, free alpha-amino group of Cys1) (domain or fragment)
chain: not shown

— paper PMC2804306 (Biopolymers, 2008)
